Data set [1] concerns the molecule itself. In words: SEC; protein homogenised and purified at 4°C (LT); Superdex S200pg 16/600, 25 mM Tris-HCl pH 7.6, 150 mM NaCl, 1 ml/min.
Data set [2] concerns the molecule itself. Description: SEC; protein homogenised and purified at room temperature (RT, 25°C); Superdex S200pg 16/600, 25 mM Tris-HCl pH 7.6, 150 mM NaCl, 1 ml/min. For orientation: SEC sorts molecules by how far they enter the pores of the column.

For orientation: stoichiometry N means the number of molecules, sites or subunits per partner or assembly.

B1: naïve Epinephelus coioides mtHsp60 (EcHsp60), with the mitochondrial importing signal (natural protein)
chain: MFRLPTVMKQVRPVCRALAPHLTRAYAKDVKFGADARALMLQGVDLLADAVAVTMGPKGRTVIIEQSWGSPKVTKDGVTVAKSIDLKDKYKNIGAKLVQDVANNTNEEAGDGTTTATVLARAIAKEGFDTISKGANPVEIRRGVMMAVETVIKELKNLSKPVTTPEEIAQVATISANGDVEIGNIISNAMKKVGRKGVITVKDGKTLHDELEIIEGMKFDRGYISPYFINTAKGQKCEFQDAYLLLSEKKISSVQSIVPALEIANQHRKPLVIVAEDVDGEALSTLVLNRLKVGLQVVAVKAPGFGDNRKNQLRDMAVATGGTVFGDEAVGLALEDIQAHDFGKIGEVQITKDDTLLLKGGGSPAEVEKRAAEIVEQLENTTSDYEKEKLNERLAKLSDGVAVLKVGGTSDVEVNEKKDRVTDALNATRAAVEEGIVPGGGCALLRCIPSLDAIQTANADQKIGVEIIRRALRIPAMTIAKNAGVEGSLVVEKILQGSAELGYDAMQGEYVNMVEKGIIDPTKVVRTALLDAAGVASLLSTAEAVVTEIPKEEKEMPGGMGGMGGMGGMGGMGGGMGF
For B1, the “stoichiometry N” value was 2 in data set [1] and 7 in data set [2].

B2: naïve EcHsp60^ΔC (C-terminal GGM repeats truncated, Δ527–552) (domain or fragment)
chain: MFRLPTVMKQVRPVCRALAPHLTRAYAKDVKFGADARALMLQGVDLLADAVAVTMGPKGRTVIIEQSWGSPKVTKDGVTVAKSIDLKDKYKNIGAKLVQDVANNTNEEAGDGTTTATVLARAIAKEGFDTISKGANPVEIRRGVMMAVETVIKELKNLSKPVTTPEEIAQVATISANGDVEIGNIISNAMKKVGRKGVITVKDGKTLHDELEIIEGMKFDRGYISPYFINTAKGQKCEFQDAYLLLSEKKISSVQSIVPALEIANQHRKPLVIVAEDVDGEALSTLVLNRLKVGLQVVAVKAPGFGDNRKNQLRDMAVATGGTVFGDEAVGLALEDIQAHDFGKIGEVQITKDDTLLLKGGGSPAEVEKRAAEIVEQLENTTSDYEKEKLNERLAKLSDGVAVLKVGGTSDVEVNEKKDRVTDALNATRAAVEEGIVPGGGCALLRCIPSLDAIQTANADQKIGVEIIRRALRIPAMTIAKNAGVEGSLVVEKILQGSAELGYDAMQGEYVNMVEKGIIDPTKVVRTALLDAAGVASLLSTAEAVVTEIPKE
In the case of B2, in data set [1], the “stoichiometry N” value was 7.

Source of the values: paper PMC10053435, “Crystal structures of dimeric and heptameric mtHsp60 reveal the mechanism of chaperonin inactivation” (Life Science Alliance, 2023).
